Biological target: the molecule itself
Experiment: SEC + other: dynamic light scattering; Superdex 200 in 50 mM Tris pH 8.0, 500 mM NaCl; DLS at 0.5 mg/ml in aqueous buffer

B1: PhaPAh (PHA binding protein PhaP, a phasin, from Aeromonas hydrophila strain 4AK4) (natural protein, UniProt O32470 1-116, looked up)
chain: MNMDVIKSFTEQMQGFAAPLTRYNQLLASNIEQLTRLQLASANAYAELGLNQLQAVSKVQDTQSLAALGTVQLETASQLSRQMLDDIQKLSALGQQFKEELDVLTADGIKKSTGKA
notes: PhaP (phasin) of Aeromonas hydrophila strain 4AK4, UniProtKB O32470, residues 1-116; called full-length in the methods; Cloned in pGEX-6P-1; residues left by PreScission cleavage are not described; Phasing used a (Ta6Br12)2+ soaked crystal and a selenomethionine-labelled crystal; the final model is of the native crystal; also called wild type; wild-type PhaPAh; not shown: GST, N-terminal, cleaved
stoichiometry N: 4

— paper PMC5180188, “Structural Insights on PHA Binding Protein PhaP from Aeromonas hydrophila” (Scientific Reports, 2016)
